Test results as given in article PMC3871432 (The Journal of Cell Biology, 2013).
Where “and” joins values, the source holds several entries; their conditions need not be identical. Equal values may be shown once. Read-outs that look alike come from different tables or passages of the source.

What was measured:
She2p;She3p;Myo4p-C [1] = target: T1, She2p;She3p;Myo4p-C (Saccharomyces cerevisiae;Saccharomyces …, UniProt P36068;P38272;P32492 1-246;1-425;978-1471, ||); experiment: EMSA
She3p;Myo4p-C = target: T2, She3p;Myo4p-C (Saccharomyces cerevisiae;Saccharomyces …, UniProt P38272;P32492 1-425;978-1471, |); experiment: EMSA
T2 sequence 1: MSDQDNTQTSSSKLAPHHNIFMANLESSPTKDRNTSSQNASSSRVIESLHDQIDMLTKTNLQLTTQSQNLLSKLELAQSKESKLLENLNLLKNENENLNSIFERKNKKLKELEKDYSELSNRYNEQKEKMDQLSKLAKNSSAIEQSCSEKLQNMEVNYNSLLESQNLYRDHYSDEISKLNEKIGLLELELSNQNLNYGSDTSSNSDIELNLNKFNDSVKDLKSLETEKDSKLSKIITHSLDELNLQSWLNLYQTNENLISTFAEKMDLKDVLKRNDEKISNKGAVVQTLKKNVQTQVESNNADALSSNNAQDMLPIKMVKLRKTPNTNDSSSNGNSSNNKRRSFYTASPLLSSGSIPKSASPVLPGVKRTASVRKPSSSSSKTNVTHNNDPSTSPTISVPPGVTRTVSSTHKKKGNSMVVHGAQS
T2 sequence 2: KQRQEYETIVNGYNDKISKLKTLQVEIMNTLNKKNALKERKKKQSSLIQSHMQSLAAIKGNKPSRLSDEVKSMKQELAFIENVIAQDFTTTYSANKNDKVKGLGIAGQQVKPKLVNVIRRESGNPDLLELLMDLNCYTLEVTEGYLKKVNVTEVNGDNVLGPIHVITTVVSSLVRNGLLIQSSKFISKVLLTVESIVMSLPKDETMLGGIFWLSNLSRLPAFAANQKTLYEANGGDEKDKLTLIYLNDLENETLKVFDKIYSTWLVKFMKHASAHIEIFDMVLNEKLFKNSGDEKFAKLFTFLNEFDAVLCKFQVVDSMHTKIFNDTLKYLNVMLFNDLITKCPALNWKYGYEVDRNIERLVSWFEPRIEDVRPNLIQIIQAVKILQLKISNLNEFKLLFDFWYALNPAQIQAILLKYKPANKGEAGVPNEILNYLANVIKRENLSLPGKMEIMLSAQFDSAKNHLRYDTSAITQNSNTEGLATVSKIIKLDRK

She2p = She2p (Saccharomyces cerevisiae, UniProt P36068 1-246); experiment: SLS
She2p;She3p;Myo4p-C [2] = target: T1, She2p;She3p;Myo4p-C; experiment: SEC
[3] = target: T3, Myo4p-C (amino acids 978–1,471) (S. cerevisiae, UniProt P32492 978-1471); experiment: static light scattering coupled to SEC
T3 sequence: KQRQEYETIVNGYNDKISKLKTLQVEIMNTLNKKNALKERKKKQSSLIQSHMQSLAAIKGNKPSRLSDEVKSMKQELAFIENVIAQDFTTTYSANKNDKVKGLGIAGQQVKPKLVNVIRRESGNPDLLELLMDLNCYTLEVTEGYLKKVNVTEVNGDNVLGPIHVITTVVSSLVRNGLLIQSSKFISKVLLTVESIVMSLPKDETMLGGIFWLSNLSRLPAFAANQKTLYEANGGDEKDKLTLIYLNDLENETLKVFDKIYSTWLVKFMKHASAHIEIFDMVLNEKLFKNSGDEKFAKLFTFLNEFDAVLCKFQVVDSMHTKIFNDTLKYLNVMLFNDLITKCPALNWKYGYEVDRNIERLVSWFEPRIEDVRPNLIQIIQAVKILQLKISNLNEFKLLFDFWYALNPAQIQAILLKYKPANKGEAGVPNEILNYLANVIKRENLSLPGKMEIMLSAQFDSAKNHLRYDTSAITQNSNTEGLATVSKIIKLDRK

[4] = target: T3, Myo4p-C (amino acids 978–1,471); experiment: ITC
cross-linking = target: the molecule itself; experiment: cross-linking
[5] = target: T3, Myo4p-C (amino acids 978–1,471); experiment: quantitative mass spectrometry with heavy isotope-labeled peptides
[6] = target: T3, Myo4p-C (amino acids 978–1,471); experiment: as above; remark: listed apart in the source
[7] = target: T4, She2p;She3p;Myo4p full-length (Saccharomyces cerevisiae;Saccharomyces …, UniProt P36068;P38272;P32492 1-246;1-425;1-1471, ||); experiment: single-molecule TIRFM
She2p;She3p;Myo4p-C [8] = target: T1, She2p;She3p;Myo4p-C; experiment: SLS
[9] = target: T4, She2p;She3p;Myo4p full-length; experiment: single-molecule TIRFM; remark: listed apart in the source

T1 sequence (P36068 whole entry, one chain of several): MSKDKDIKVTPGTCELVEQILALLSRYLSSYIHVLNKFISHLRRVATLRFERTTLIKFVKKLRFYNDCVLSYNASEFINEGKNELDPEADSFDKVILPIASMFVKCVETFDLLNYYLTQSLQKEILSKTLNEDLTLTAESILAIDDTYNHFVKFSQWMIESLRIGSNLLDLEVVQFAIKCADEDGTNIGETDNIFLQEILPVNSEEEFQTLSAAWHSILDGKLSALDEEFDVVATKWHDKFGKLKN
Sequence of She2p (P36068 whole entry): as the sequence (P36068 whole entry, one chain of several) above
T4 sequence (P36068 whole entry, one chain of several): as above

B1: ASH1-E3-77 (structured_RNA)
RNA: GGGAGAGAAUUGAUACAUGGAUAACUGAAUCUCUUUCAACUAAUAAGAGACAUUAUCACGAAACAAUUGUACAUUUCUCU
What does the source list for B1?
binding result (She2p;She3p;Myo4p-C [1]): binds; binding result (She3p;Myo4p-C): binds

B2: ASH1-E3-51 (structured_RNA)
RNA: AUGGAUAACUGAAUCUCUUUCAACUAAUAAGAGACAUUAUCACGAAACAAU
Which results are given for B2?
binding result (She2p): binds; binding result (She2p;She3p;Myo4p-C [2]): binds

B3: She3p, full-length (natural protein)
chain: MSDQDNTQTSSSKLAPHHNIFMANLESSPTKDRNTSSQNASSSRVIESLHDQIDMLTKTNLQLTTQSQNLLSKLELAQSKESKLLENLNLLKNENENLNSIFERKNKKLKELEKDYSELSNRYNEQKEKMDQLSKLAKNSSAIEQSCSEKLQNMEVNYNSLLESQNLYRDHYSDEISKLNEKIGLLELELSNQNLNYGSDTSSNSDIELNLNKFNDSVKDLKSLETEKDSKLSKIITHSLDELNLQSWLNLYQTNENLISTFAEKMDLKDVLKRNDEKISNKGAVVQTLKKNVQTQVESNNADALSSNNAQDMLPIKMVKLRKTPNTNDSSSNGNSSNNKRRSFYTASPLLSSGSIPKSASPVLPGVKRTASVRKPSSSSSKTNVTHNNDPSTSPTISVPPGVTRTVSSTHKKKGNSMVVHGAQS
How did the “stoichiometry N” value [3] turn out when B3 was run?
Its value is 2 She3p/Myo4p-C.

What about the “stoichiometry N” value [4] of the same binder?
The value was 1.93 She3p:Myo4p.

What about the “stoichiometry N” value (cross-linking) of the same binder?
The value was 2.

And the “stoichiometry N” value [5]?
The value was 2.56 She3p:Myo4p-C.

What about the “stoichiometry N” value [6] of the same binder?
Its value is 2.12 She3p:Myo4p-C and 2.23 She3p:Myo4p-C.

B4: ASH1-E3-77 + 3' overhang (mixed)
RNA: GGGAGAGAAUUGAUACAUGGAUAACUGAAUCUCUUUCAACUAAUAAGAGACAUUAUCACGAAACAAUUGUACAUUUCUCUCCUUGUCUGUGCUAAAUAAACUAC
DNA: GTAGTTTATTTAGCACAGACAAGG
Does B4 bind [7]?
Result: binds

B5: She3p N-terminal fragment (amino acids 1–234) (domain or fragment)
chain: MSDQDNTQTSSSKLAPHHNIFMANLESSPTKDRNTSSQNASSSRVIESLHDQIDMLTKTNLQLTTQSQNLLSKLELAQSKESKLLENLNLLKNENENLNSIFERKNKKLKELEKDYSELSNRYNEQKEKMDQLSKLAKNSSAIEQSCSEKLQNMEVNYNSLLESQNLYRDHYSDEISKLNEKIGLLELELSNQNLNYGSDTSSNSDIELNLNKFNDSVKDLKSLETEKDSKLSK
Does B5 bind (cross-linking)?
Result: binds

B6: ASH1-E3-77-tRNA (structured_RNA)
RNA: GGCUACGUAGCUCAGUUGGUUAGAGCAGCGGCCGAGAGAAUUGAUACAUGGAUAACUGAAUCUCUUUCAACUAAUAAGAGACAUUAUCACGAAACAAUUGUACAUUUCUCUUGGCCGCGGGUCACAGGUUCGAAUCCCGUCGUAGCCACCA
Does B6 bind (She2p;She3p;Myo4p-C [8])?
Result: binds

Does B6 bind (She2p)?
Result: binds

B7: IST2-tRNA (structured_RNA)
RNA: GGCUACGUAGCUCAGUUGGUUAGAGCAGCGGCCGGAUGCUGGAGUGAAGAAUGUCACGAACAAUUCUAAGACAACCGAAUCCUCUUCCUCUUCAUCUGGCCGCGGGUCACAGGUUCGAAUCCCGUCGUAGCCACCA
Does B7 bind (She2p)?
Result: binds

B8: IST2 + 22-nt 3' overhang (mixed)
RNA: GGGAUGCUGGAGUGAAGAAUGUCACGAACAAUUCUAAGACAACCGAAUCCUCUUCCUCUUCAUCGGCGGCAAAGGAAAAACCAAAA
DNA: TTTTGGTTTTTCCTTTGCCGCC
Does B8 bind [9]?
Result: binds
